From patent US20150045540A1 (published 2015)

T1: Placenta Growth Factor (PlGF), human (human, UniProt P49763 21-149)
T1 chain: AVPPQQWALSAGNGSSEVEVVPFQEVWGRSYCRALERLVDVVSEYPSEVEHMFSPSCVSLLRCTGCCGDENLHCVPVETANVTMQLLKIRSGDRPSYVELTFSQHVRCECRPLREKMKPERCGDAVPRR

B1: HC 4/SLC 7 (antibody)
chain 1: GQGTLVTVSSASTKQPVLHQPPAMSSALGTTIRLTCTLRNDHDIGVYSVYWYQQRPGHPPRFLLRYFSQSDKSQGPQVPPRFSGSKDVARNRGYLSISELQPEDEAMYYCAMGARSRCWPRGFQSKHNSVTHVFGSGTQLTVLSQPKATPSVTLFPPSSEELQANKATLVCLMNDFYPGILTVTWKADGTPITQGVEMTTPSKQSNNKYAASSYLSLTPEQWRSRRSYSCQVMHEGSTVEKTVAPAECS
chain 2: MSWAPVLLMLFVYCTGCGPQPVLHQPPAMSSALGTTIRLTCTLRNDHDIGVYSVYWYQQRPGHPPRFLLRYFSQSDKSQGPQVPPRFSGSKDVARNRGYLSISVTHVFGSGTQLTVLSQPKATPQVQLVQ
B2: HC 3/SLC 7 (antibody)
chain 1: GQGTLVTVSSASTQPVLHQPPAMSSALGTTIRLTCTLRNDHDIGVYSVYWYQQRPGHPPRFLLRYFSQSDKSQGPQVPPRFSGSKDVARNRGYLSISELQPEDEAMYYCAMGARSRCWPRGFQSKHNSVTHVFGSGTQLTVLSQPKATPSVTLFPPSSEELQANKATLVCLMNDFYPGILTVTWKADGTPITQGVEMTTPSKQSNNKYAASSYLSLTPEQWRSRRSYSCQVMHEGSTVEKTVAPAECS
chain 2: B1 chain 2
B3: HC 5/SLC 7 (antibody)
chain 1: GQGTLVTVSSASTKGQPVLHQPPAMSSALGTTIRLTCTLRNDHDIGVYSVYWYQQRPGHPPRFLLRYFSQSDKSQGPQVPPRFSGSKDVARNRGYLSISELQPEDEAMYYCAMGARSRCWPRGFQSKHNSVTHVFGSGTQLTVLSQPKATPSVTLFPPSSEELQANKATLVCLMNDFYPGILTVTWKADGTPITQGVEMTTPSKQSNNKYAASSYLSLTPEQWRSRRSYSCQVMHEGSTVEKTVAPAECS
chain 2: B1 chain 2
B4: HC 7/SLC 9 (antibody)
chain 1: GQGTLVTVSSASTKGPSQPVLHQPPAMSSALGTTIRLTCTLRNDHDIGVYSVYWYQQRPGHPPRFLLRYFSQSDKSQGPQVPPRFSGSKDVARNRGYLSISELQPEDEAMYYCAMGARSRCWPRGFQSKHNSVTHVFGSGTQLTVLSQPKATPSVTLFPPSSEELQANKATLVCLMNDFYPGILTVTWKADGTPITQGVEMTTPSKQSNNKYAASSYLSLTPEQWRSRRSYSCQVMHEGSTVEKTVAPAECS
chain 2: MSWAPVLLMLFVYCTGCGPQPVLHQPPAMSSALGTTIRLTCTLRNDHDIGVYSVYWYQQRPGHPPRFLLRYFSQSDKSQGPQVPPRFSGSKDVARNRGYLSISVTHVFGSGTQLTVLSQPKATPSVQVQLVQ
B5: HC 7/SLC 15 (antibody)
chain 1: B4 chain 1
chain 2: MSWAPVLLMLFVYCTGCGPQPVLHQPPAMSSALGTTIRLTCTLRNDHDIGVYSVYWYQQRPGHPPRFLLRYFSQSDKSQGPQVPPRFSGSKDVARNRGYLSISVTHVFGSGTQLTVLSQPKATPSVTGGGGSQVQLVQ
B6: HC 7/SLC 4 (antibody)
chain 1: B4 chain 1
chain 2: MSWAPVLLMLFVYCTGCGPQPVLHQPPAMSSALGTTIRLTCTLRNDHDIGVYSVYWYQQRPGHPPRFLLRYFSQSDKSQGPQVPPRFSGSKDVARNRGYLSISVTHVFGSGTQLTVLSQPKQVQLVQ
B7: HC 7/SLC 5 (antibody)
chain 1: B4 chain 1
chain 2: MSWAPVLLMLFVYCTGCGPQPVLHQPPAMSSALGTTIRLTCTLRNDHDIGVYSVYWYQQRPGHPPRFLLRYFSQSDKSQGPQVPPRFSGSKDVARNRGYLSISVTHVFGSGTQLTVLSQPKAQVQLVQ
B8: HC 9/SLC 9 (antibody)
chain 1: GQGTLVTVSSASTKGPSVFQPVLHQPPAMSSALGTTIRLTCTLRNDHDIGVYSVYWYQQRPGHPPRFLLRYFSQSDKSQGPQVPPRFSGSKDVARNRGYLSISELQPEDEAMYYCAMGARSRCWPRGFQSKHNSVTHVFGSGTQLTVLSQPKATPSVTLFPPSSEELQANKATLVCLMNDFYPGILTVTWKADGTPITQGVEMTTPSKQSNNKYAASSYLSLTPEQWRSRRSYSCQVMHEGSTVEKTVAPAECS
chain 2: B4 chain 2
B9: HC 2/SLC 9 (antibody)
chain 1: GQGTLVTVSSASQPVLHQPPAMSSALGTTIRLTCTLRNDHDIGVYSVYWYQQRPGHPPRFLLRYFSQSDKSQGPQVPPRFSGSKDVARNRGYLSISELQPEDEAMYYCAMGARSRCWPRGFQSKHNSVTHVFGSGTQLTVLSQPKATPSVTLFPPSSEELQANKATLVCLMNDFYPGILTVTWKADGTPITQGVEMTTPSKQSNNKYAASSYLSLTPEQWRSRRSYSCQVMHEGSTVEKTVAPAECS
chain 2: B4 chain 2
B10: HC 5/SLC 15 (antibody)
chain 1: B3 chain 1
chain 2: B5 chain 2
B11: HC 5/SLC 2 (antibody)
chain 1: B3 chain 1
chain 2: MSWAPVLLMLFVYCTGCGPQPVLHQPPAMSSALGTTIRLTCTLRNDHDIGVYSVYWYQQRPGHPPRFLLRYFSQSDKSQGPQVPPRFSGSKDVARNRGYLSISVTHVFGSGTQLTVLSQQVQLVQ
B12: HC 2/SLC 8 (antibody)
chain 1: B9 chain 1
chain 2: MSWAPVLLMLFVYCTGCGPQPVLHQPPAMSSALGTTIRLTCTLRNDHDIGVYSVYWYQQRPGHPPRFLLRYFSQSDKSQGPQVPPRFSGSKDVARNRGYLSISVTHVFGSGTQLTVLSQPKATPSQVQLVQ
B13: HC 6/SLC 8 (antibody)
chain 1: GQGTLVTVSSASTKGPQPVLHQPPAMSSALGTTIRLTCTLRNDHDIGVYSVYWYQQRPGHPPRFLLRYFSQSDKSQGPQVPPRFSGSKDVARNRGYLSISELQPEDEAMYYCAMGARSRCWPRGFQSKHNSVTHVFGSGTQLTVLSQPKATPSVTLFPPSSEELQANKATLVCLMNDFYPGILTVTWKADGTPITQGVEMTTPSKQSNNKYAASSYLSLTPEQWRSRRSYSCQVMHEGSTVEKTVAPAECS
chain 2: B12 chain 2
B14: HC 10/SLC 8 (antibody)
chain 1: GQGTLVTVSSASTKGPSVFPQPVLHQPPAMSSALGTTIRLTCTLRNDHDIGVYSVYWYQQRPGHPPRFLLRYFSQSDKSQGPQVPPRFSGSKDVARNRGYLSISELQPEDEAMYYCAMGARSRCWPRGFQSKHNSVTHVFGSGTQLTVLSQPKATPSVTLFPPSSEELQANKATLVCLMNDFYPGILTVTWKADGTPITQGVEMTTPSKQSNNKYAASSYLSLTPEQWRSRRSYSCQVMHEGSTVEKTVAPAECS
chain 2: B12 chain 2

Molecular target: T1, Placenta Growth Factor (PlGF), human
Experiment: ELISA

Binder | EC50 [pM]
B1 | 161
B2 | 159
B3 | 129
B4 | 57
B5 | 52
B6 | 204
B7 | 283
B8 | 46
B9 | 195
B10 | 49
B11 | 197
B12 | 119
B13 | 73
B14 | 46

Molecular target: Hepatocyte Growth Factor (HGF), human (human, UniProt P14210 32-728)
Sequence (P14210 32-728): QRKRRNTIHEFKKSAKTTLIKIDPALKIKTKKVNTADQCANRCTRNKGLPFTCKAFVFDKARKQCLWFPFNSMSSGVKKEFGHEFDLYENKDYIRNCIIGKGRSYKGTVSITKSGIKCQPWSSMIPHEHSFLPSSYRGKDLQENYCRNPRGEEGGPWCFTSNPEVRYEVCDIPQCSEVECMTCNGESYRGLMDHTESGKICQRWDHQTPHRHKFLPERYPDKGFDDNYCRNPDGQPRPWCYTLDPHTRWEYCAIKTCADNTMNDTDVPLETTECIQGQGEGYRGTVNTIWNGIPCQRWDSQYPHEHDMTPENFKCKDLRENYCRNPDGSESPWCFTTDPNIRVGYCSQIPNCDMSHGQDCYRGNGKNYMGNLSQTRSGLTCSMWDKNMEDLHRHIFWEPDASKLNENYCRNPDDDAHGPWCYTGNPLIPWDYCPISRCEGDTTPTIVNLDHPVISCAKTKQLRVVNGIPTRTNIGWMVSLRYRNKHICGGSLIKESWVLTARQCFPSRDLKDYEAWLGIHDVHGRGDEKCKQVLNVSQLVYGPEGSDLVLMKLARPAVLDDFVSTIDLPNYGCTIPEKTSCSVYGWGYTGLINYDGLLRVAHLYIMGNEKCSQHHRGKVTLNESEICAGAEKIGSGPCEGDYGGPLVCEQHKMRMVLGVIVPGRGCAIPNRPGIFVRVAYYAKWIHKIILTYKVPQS
Experiment: ELISA

Binder | EC50 [pM]
B1 | 59
B2 | 54
B3 | 56
B4 | 48
B5 | 53
B6 | 65
B7 | 56
B8 | 58
B9 | 63
B10 | ~41
B11 | 51
B12 | 46
B13 | 59
B14 | 48
